This assay has as its target T1, mouse FAPα on Expi293F cells (mouse (Mus musculus), UniProt P97321 1-761).
T1 sequence: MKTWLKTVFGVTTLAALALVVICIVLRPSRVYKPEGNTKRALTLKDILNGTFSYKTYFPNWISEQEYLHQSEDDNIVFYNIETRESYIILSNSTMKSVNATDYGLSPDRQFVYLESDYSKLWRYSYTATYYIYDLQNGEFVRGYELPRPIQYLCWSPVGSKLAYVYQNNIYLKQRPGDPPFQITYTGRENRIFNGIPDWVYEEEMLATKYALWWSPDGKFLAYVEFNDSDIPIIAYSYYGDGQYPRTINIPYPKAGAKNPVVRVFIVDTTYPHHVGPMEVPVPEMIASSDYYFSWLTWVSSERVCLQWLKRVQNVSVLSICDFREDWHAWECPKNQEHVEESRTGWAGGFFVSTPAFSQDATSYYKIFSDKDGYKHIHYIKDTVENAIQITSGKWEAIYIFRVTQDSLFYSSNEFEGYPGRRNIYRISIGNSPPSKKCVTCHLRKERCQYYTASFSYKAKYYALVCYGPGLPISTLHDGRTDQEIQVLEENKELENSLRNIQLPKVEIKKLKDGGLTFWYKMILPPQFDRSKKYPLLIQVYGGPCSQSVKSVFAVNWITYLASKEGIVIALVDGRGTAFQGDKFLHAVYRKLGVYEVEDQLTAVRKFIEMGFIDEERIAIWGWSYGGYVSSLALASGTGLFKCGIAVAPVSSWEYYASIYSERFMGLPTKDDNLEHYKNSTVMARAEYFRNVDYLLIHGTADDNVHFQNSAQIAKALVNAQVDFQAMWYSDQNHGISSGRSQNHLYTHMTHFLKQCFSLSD
The assay is described as follows: flow cytometry on Expi293F cells transiently expressing mouse FAPα, gMFI PE. Here is the method: Binding of BisG1-FAPα-FERL/DR4-FERR, BisG1-FAPα-FEAL/b12-FEAR and IgG1-FAPα-FERL to FAPα of species commonly used for nonclinical toxicology studies was assessed by flow cytometry using Expi293F cells transiently expressing FAPα from different animal species. IgG1-b12 was included as negative control.
Expi293F cells expressing recombinant FAPα from various species (human, cynomolgus monkey, dog, pig, rat or mouse) were seeded (20,000 cells/well) in 96-Well round bottom plates (Greiner Bio-one, Cat #650101). Antibody dilutions were prepared using FACS buffer, consisting of PBS (Capricorn Scientific, Cat #PBS-10XA, diluted to 1×PBS in distilled water)+1% BSA (Roche, Cat #10735086001)+0.02% Sodium Azide (Bio-World, Cat #41920044-3). Plates were centrifuged, supernatant was removed, and cells were resuspended in 100 μL of antibody dilutions (concentration range 30-0.00017 μg/mL with three-fold serial dilutions using FACS buffer) of BisG1-FAPα-FERL/DR4-FERR, BisG1-FAPα-FEAL/b12-FEAR, IgG1-FAPα-FERL and IgG1-b12 and incubated for 30 min at 4° C. […] After 30 min incubation at 4° C., cells were washed with FACS buffer and resuspended in FACS buffer supplemented with TO-PRO-3 Iodide viability marker (Invitrogen, Cat #T3605, diluted 1:4,000). Antibody binding to viable cells (gMFI of PE on TO-PRO-3 negative cells) was analyzed by flow cytometry on a FACS Celesta and FACS_Diva software (first two experiments) or iQue® 3 and FlowJo software (last experiment). gMFI was determined and visualized using GraphPad Prism. Binding curves were analyzed using nonlinear regression analysis. The concentration (pg/mL) at which 50% of the maximal effect was observed (EC₅₀) was derived from the fitted curves.
In general terms: A flow cytometer gives signals particle by particle.

Substitutions are numbered along the chain they refer to.

Usually EC50 (read off the curve) stands for the midpoint of the concentration-response curve. Lower therefore signals higher potency in that assay.

B1: BisG1-FAPα-FERL/DR4-FERR (bispecific antibody, human IgG1, kappa, lambda)
heavy 1: EVQLLESGGGLVQPGGSPRLSCEASGFTFSSYALSWVRQAPGKGLEWVSAISGSGGGRYYADSVKGRFTISRDNSKNTLFLQMNSLRAEDTAVYYCAKEGYSSSGTYWDHWGQGTLVTVSSASTKGPSVFPLAPSSKSTSGGTAALGCLVKDYFPEPVTVSWNSGALTSGVHTFPAVLQSSGLYSLSSVVTVPSSSLGTQTYICNVNHKPSNTKVDKRVEPKSCDKTHTCPPCPAPEFERGPSVFLFPPKPKDTLMISRTPEVTCVVVDVSHEDPEVKFNWYVDGVEVHNAKTKPREEQYNSTYRVVSVLTVLHQDWLNGKEYKCKVSNKALPAPIEKTISKAKGQPREPQVYTLPPSREEMTKNQVSLTCLVKGFYPSDIAVEWESNGQPENNYKTTPPVLDSDGSFLLYSKLTVDKSRWQQGNVFSCSVMHEALHNHYTQKSLSLSPG
light 1: AIQMTQSPSSVSASVGDRVTITCRASQGVSSWLAWYQQKPGRAPKLLIYVASTLQSGVPSRFSGSGSGTDFTLTINSLQPEDFATYYCQQANSFPPTFGQGTRLEMKRTVAAPSVFIFPPSDEQLKSGTASVVCLLNNFYPREAKVQWKVDNALQSGNSQESVTEQDSKDSTYSLSSTLTLSKADYEKHKVYACEVTHQGLSSPVTKSFNRGEC
heavy 2: QVQLQESGPGLVKPSGTLSLTCAVSGGSISSYSWWSWIRQPPGKGLEWIGELYHSGSTNYNPSLKSRVTISVDKSKNQFSLKLRSVTAADTAVYYCVRGVATIDYWGQGTLVTVSSASTKGPSVFPLAPSSKSTSGGTAALGCLVKDYFPEPVTVSWNSGALTSGVHTFPAVLQSSGLYSLSSVVTVPSSSLGTQTYICNVNHKPSNTKVDKRVEPKSCDKTHTCPPCPAPEFERGPSVFLFPPKPKDTLMISRTPEVTCVVVDVSHEDPEVKFNWYVDGVEVHNAKTKPREEQYNSTYRVVSVLTVLHQDWLNGKEYKCKVSNKALPAPIEKTISKAKGQPREPQVYTLPPSREEMTKNQVSLTCLVKGFYPSDIAVEWESNGQPENNYKTTPPVLDSDGSFFLYSRLTVDKSRWQQGNVFSCSVMHEALHNHYTQKSLSLSPG
light 2: QSALTQPPSASGSPGQSVTISCTGTSSDVGGYNFVSWYQQDPGKAPKLLIYEVTKRPSGVPDRFSGSKSGNTASLTVSGLQAEDEADYYCSSYAGSNNVMFGGGTKLTVLGQPKAAPSVTLFPPSSEELQANKATLVCLISDFYPGAVTVAWKADSSPVKAGVETTTPSKQSNNKYAASSYLSLTPEQWKSHRSYSCQVTHEGSTVEKTVAPTECS
notes: Human IgG1 bispecific made by controlled Fab-arm exchange of IgG1-FAPα-FERL and IgG1-DR4-FERR; monovalent for FAPα and for DR4; also called GEN1057
B1: the binding result is given as “binds”.

B2: IgG1-FAPα-FERL (antibody)
heavy: B1 heavy 1
light: B1 light 1
notes: Bivalent monoclonal IgG1 kappa
On to B2, for which the “EC50 (read off the curve)” value is about 0.1 µg/mL.

B3: BisG1-FAPα-FEAL/b12-FEAR (bispecific antibody, human IgG1, kappa)
heavy 1: B1 heavy 1 with R240G, D269A
light 1: B1 light 1
heavy 2: QVQLVQSGAEVKKPGASVKVSCQASGYRFSNFVIHWVRQAPGQRFEWMGWINPYNGNKEFSAKFQDRVTFTADTSANTAYMELRSLRSADTAVYYCARVGPYSWDDSPQDNYYMDVWGKGTTVIVSSASTKGPSVFPLAPSSKSTSGGTAALGCLVKDYFPEPVTVSWNSGALTSGVHTFPAVLQSSGLYSLSSVVTVPSSSLGTQTYICNVNHKPSNTKVDKRVEPKSCDKTHTCPPCPAPEFEGGPSVFLFPPKPKDTLMISRTPEVTCVVVAVSHEDPEVKFNWYVDGVEVHNAKTKPREEQYNSTYRVVSVLTVLHQDWLNGKEYKCKVSNKALPAPIEKTISKAKGQPREPQVYTLPPSREEMTKNQVSLTCLVKGFYPSDIAVEWESNGQPENNYKTTPPVLDSDGSFFLYSRLTVDKSRWQQGNVFSCSVMHEALHNHYTQKSLSLSPG
light 2: EIVLTQSPGTLSLSPGERATFSCRSSHSIRSRRVAWYQHKPGQAPRLVIHGVSNRASGISDRFSGSGSGTDFTLTITRVEPEDFALYYCQVYGASSYTFGQGTKLERKRTVAAPSVFIFPPSDEQLKSGTASVVCLLNNFYPREAKVQWKVDNALQSGNSQESVTEQDSKDSTYSLSSTLTLSKADYEKHKVYACEVTHQGLSSPVTKSFNRGEC
notes: Fab-arm exchange of IgG1-FAPα-FEAL and IgG1-b12-FEAR
As to B3, the binding result was “binds”.

For the origin of these results see US20250002610A1 (Genmab, published 2025).
